According to patent publication US20230220067A1 (Johns Hopkins, published 2023):
Numbering of substitutions follows the chain as printed. Blank lines part the entries; values can stand above or below the binder they belong to.

Experiments:
[1] = target: T1, potassium two pore domain channel subfamily K member 9 (KCNK9) (human, UniProt Q9NPC2 1-374); assay: flow cytometry on induced KCNK9-expressing HEK293 cells, anti-human Fc FITC secondary
T1 construct: whole, on cells; also called human KCNK9
T1 sequence (Q9NPC2 whole entry, the tested form may be a part): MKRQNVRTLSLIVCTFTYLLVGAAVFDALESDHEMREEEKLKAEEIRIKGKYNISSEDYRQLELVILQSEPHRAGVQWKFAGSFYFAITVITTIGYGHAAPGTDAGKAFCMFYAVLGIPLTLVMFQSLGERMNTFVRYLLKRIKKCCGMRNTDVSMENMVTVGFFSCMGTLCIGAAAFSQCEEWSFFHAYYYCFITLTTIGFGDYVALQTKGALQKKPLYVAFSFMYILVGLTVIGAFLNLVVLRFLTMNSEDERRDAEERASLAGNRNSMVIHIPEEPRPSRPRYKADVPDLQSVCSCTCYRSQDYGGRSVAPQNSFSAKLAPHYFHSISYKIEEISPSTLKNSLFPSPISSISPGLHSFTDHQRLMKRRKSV
Text: An anti-KCNK9 mouse monoclonal antibody having a VH amino acid sequence of SEQ ID NO: 1 and a VL amino acid sequence of SEQ ID NO: 2 (mu-mAb) was humanized using a method based on Queen et al., Proc. Natl. Acad. Sci. USA, 86: 10029-10033 (1989). The hybridoma antibody was sequenced after amplifying the antibody variable regions by RT-PCR with degenerate primers. The variable regions were fused with the human antibody IgG1 constant regions to produce a chimeric antibody. Antigen binding of the chimeric antibody was confirmed by staining of the KCNK9-expressing cells. HEK293 cells were stably transfected with KCNK9 expression vector under the tetracycline inducible promoter. After induction, the cells were incubated with various concentrations of chimeric KCNK9 antibody for 30 minutes, followed by secondary anti-human Fc FITC conjugate. Chimeric antibody binding was analyzed by flow cytometry.

[2] = target: human FcγIII (human, UniProt P08637 17-254); assay: cell-based or functional assay
human FcγIII, sequence (P08637 17-254): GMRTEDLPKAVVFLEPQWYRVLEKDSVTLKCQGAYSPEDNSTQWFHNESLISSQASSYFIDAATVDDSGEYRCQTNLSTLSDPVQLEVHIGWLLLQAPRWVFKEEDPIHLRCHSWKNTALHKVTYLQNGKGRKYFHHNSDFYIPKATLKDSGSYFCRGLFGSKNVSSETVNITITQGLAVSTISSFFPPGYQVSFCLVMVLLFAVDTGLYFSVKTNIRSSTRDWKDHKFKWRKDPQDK

[3] = target: T1, potassium two pore domain channel …; assay: flow cytometry of KCNK9-expressing cells, anti-human Fc PE secondary
Text: After antibody sequence analysis and structure modeling, the murine antibody CDRs (SEQ ID NOs: 3-8) were grafted into human antibody VK3-11 and VH1-3 frameworks. Critical murine antibody framework residues that support CDR conformation were identified and introduced into the human frameworks. Five variants of the humanized VH sequences (VH1-5; SEQ ID NOs: 9-13) and three variants of the humanized VL variants (VL1-3; SEQ ID NOs: 14-16) were designed and synthesized. All of the variable regions were cloned into a human IgG1 expression vector. The VHs and VLs were cross-matched to generate 15 humanized KCNK9 antibody clones. All humanized antibodies were produced by transient transfection in 293 cells and purified by Protein A chromatography. Antigen binding of the humanized KCNK9 antibodies was characterized by immunofluorescence staining of KCNK9-expressing cells.

B3: afucosyl humanized KCNK9 monoclonal antibody AF-H5L2 (antibody, V domains shown)
VH: QVQLVQSGAEVKKPGASVKVSCKASGYSFTGYYMYWVRQAPGQRLEWIGEINPSSGGTTYNQKFKARATLTVDKSASTAYMELSSLRSEDTAVYYCARSGLRRRFYAMDYWGQGTLVTVSS
VL: EIVLTQSPATLSLSPGERATLSCRASESVDSFGTTFMHWYQQKPGQAPRLLIYRASNLESGIPARFSGSGSRTDFTLTISSLEPEDFAVYYCQQSNKDPPTFGGGTKVEIK
modifications: afucosyl N-glycan on the Fc region (made in fut8-/- CHO cells)
- ADCC activity (lysis of KCNK9-expressing HEK293 target cells by NK92-3F9 effector cells) [2]: 100 fold

B4: humanized KCNK9 antibody clone H4L3 (antibody, V domains shown)
VH: B3 VH with I48M, A68V
VL: B3 VL with A47P, V89T
notes: Variable regions cloned into a human IgG1 expression vector; produced in 293 cells
- binding result [3]: binds

B5: humanized KCNK9 antibody clone H5L2 (antibody, V domains shown)
VH: B3 VH
VL: B3 VL
notes: as for B4
- binding result [3]: binds

More lines, now with the values ahead:

- EC50 [1]: ~0.3 µg/mL
B1: chimeric KCNK9 antibody (antibody, V domains shown)
VH: EVQLQQSGPELVKPGASVKTSCKASGYSFTGYYMYWVKQSPEKSLEWIGEINPSSGGTTYNQKFKAKATLTVDKSSSTAYMQLKSLTFEDSAVYYCARSGLRRRFYAMDYWGQGTSVTVSS
VL: DIVLTQSPASLAVSLGQRATVSCRASESVDSFGTTFMHWYQQKPGQPPKLLIYRASNLESGIPARFSGSGSRTDFTLTINPVEADDVATYYCQQSNKDPPTFGGGSKLEIK
notes: Variable regions of the mouse anti-KCNK9 monoclonal antibody (mu-mAb) fused with human antibody IgG1 constant regions; also called chimeric antibody; chimeric KCNK9 monoclonal antibody

- ADCC activity (lysis of KCNK9-expressing HEK293 target cells by NK92-3F9 effector cells) [2]: 100 fold
B2: afucosyl humanized KCNK9 monoclonal antibody AF-H4L3 (antibody, V domains shown)
VH: B3 VH with I48M, A68V
VL: B3 VL with A47P, V89T
modifications: afucosyl N-glycan on the Fc region (made in fut8-/- CHO cells)
